Measurements as given in patent publication US20250136696A1 (HARBOUR BIOMED SHANGHAI, published 2025).
Where a chain is given by its changes, count along the chain named.

T1: biotinylated human B7-H7 protein (Acro Biosystems, B77-H82F5) (human, UniProt Q9UM44 23-344, biotinylated)
T1 construct: Bought soluble protein; also called biotin-B7H7 protein
T1 sequence (looked up): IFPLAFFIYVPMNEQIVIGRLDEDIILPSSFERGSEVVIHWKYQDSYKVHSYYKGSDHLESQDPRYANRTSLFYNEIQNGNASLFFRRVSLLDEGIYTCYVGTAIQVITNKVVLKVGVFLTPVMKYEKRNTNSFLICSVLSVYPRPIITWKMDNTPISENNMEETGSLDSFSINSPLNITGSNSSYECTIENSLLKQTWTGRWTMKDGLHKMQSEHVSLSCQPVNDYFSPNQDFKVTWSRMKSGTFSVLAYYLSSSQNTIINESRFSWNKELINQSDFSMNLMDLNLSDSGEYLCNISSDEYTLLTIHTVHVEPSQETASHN

T2: human B7-H7 on the cell surface (human, UniProt Q9UM44 23-414)
T2 construct: whole, on cells; also called hB7-H7; hu B7-H7
T2 sequence (looked up): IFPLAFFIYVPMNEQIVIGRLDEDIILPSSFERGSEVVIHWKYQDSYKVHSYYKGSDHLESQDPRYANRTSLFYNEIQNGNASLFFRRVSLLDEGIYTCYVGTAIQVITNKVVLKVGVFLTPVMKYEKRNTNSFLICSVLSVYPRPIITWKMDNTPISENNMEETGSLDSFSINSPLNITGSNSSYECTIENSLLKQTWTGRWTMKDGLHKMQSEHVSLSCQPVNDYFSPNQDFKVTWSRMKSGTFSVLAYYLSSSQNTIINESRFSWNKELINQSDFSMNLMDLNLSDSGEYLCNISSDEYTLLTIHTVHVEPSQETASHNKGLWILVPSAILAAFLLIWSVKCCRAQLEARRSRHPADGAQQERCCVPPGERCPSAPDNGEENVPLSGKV

T3: CD275/ICOS ligand protein, human, recombinant (Fc tag) (Sino Biological, 11559-H02H) (human, UniProt O75144 19-258)
T3 construct: Bought; also called B7H2
T3 sequence (looked up): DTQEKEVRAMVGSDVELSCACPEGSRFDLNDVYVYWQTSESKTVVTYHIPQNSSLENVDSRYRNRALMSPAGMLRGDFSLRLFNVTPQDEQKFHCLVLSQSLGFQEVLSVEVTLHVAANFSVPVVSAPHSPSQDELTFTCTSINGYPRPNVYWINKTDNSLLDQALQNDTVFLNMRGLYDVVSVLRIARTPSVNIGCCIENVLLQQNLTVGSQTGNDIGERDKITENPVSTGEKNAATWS

B1: PR003251 (antibody, human IgG1, kappa, V domains shown)
VH: QVQLVESGGGVVQPGRSLRLSCAVSGFTFSRYGMHWVRQAPGKGLDWVAVIWYNGNNKYYTDSVKGRFTISRDNSKNTLFLQMNSLRAEDTAVYYCARDGAYSYGPFDYWGQGTLVTVSS
VL: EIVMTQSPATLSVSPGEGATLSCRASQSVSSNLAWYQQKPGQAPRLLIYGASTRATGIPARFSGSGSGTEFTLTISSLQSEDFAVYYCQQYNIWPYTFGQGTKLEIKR
notes: Human IgG1; also called 29F2C8
B2: PR003254 (antibody, human IgG1, kappa, V domains shown)
VH: B1 VH with V24A, R31S, D46E, V50D, T61A, F80Y, V93L, A101G
VL: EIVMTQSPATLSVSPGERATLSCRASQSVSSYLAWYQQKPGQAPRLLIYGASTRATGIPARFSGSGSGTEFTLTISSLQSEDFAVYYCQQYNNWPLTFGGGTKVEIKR
notes: Human IgG1; also called 59D6D2
B3: PR003262 (antibody, human IgG1, kappa, V domains shown)
VH: B1 VH with V24A, M34I, D46E, N56R, T61V, F80Y, A101G
VL: EIVMTQSPATLSVSPGERATLSCRASQSFSNNLAWYQQKPGQAPRLLIYGASTRATGIPARFSGSGSGTEFTLTISSLQSEDFAVYYCHQYNIWPLTFGGGTKVEIKR
notes: Human IgG1; also called 77D5A4
B4: PR003260 (antibody, human IgG1, kappa, V domains shown)
VH: QVQLVESGGGVVQPGRSLRLPCAASGFTFSRYGMHWVRQAPGKGLEWVADIWYDGSKKYYADSVKGRFTISRDNSKNTLYLQMNSLRAEDTAVYFCTRDGGYSYGPFDYWGQGTLVTVSS
VL: B3 VL with F29V, N31S, G50Y, T56P, G66E, H89Q, L96Y, G100Q, V104L
notes: Human IgG1; also called 70F3B1
B5: PR003263 (antibody, human IgG1, kappa, V domains shown)
VH: QVQLVESGGGVVQPGRSLRLSCAASGFTFSYYGLNWVRQAPGKGLEWVAVIWFDGTNKYYADSVKGRFTISRDDSKNTLYLQMNSLRAEDTAVYYCARGYGSGSYYNYVMDAWGQGASVTVSS
VL: B3 VL with F29V, N31S, R54G, E70D, H89Q, N92Y, I93K
notes: Human IgG1; also called 77E6C4
B6: PR003264 (antibody, human IgG1, kappa)
heavy: not shown
light: DIQLTQSPSFLSASVGDRVTITCRASQGISSYFAWYQQKPGKAPKLLIYAASTLQSGVPSRFSGSGSGTEFTLTISSLQPEDFATYYCQHLNRYPWTFGQGTKVEIKRTVAAPSVFIFPPSDEQLKSGTASVVCLLNNFYPREAKVQWKVDNALQSGNSQESVTEQDSKDSTYSLSSTLTLSKADYEKHKVYACEVTHQGLSSPVTKSFNRGEC
notes: Human IgG1; also called 77G10D3
B7: PR004263 (antibody, human IgG1, kappa, L234A L235A)
heavy: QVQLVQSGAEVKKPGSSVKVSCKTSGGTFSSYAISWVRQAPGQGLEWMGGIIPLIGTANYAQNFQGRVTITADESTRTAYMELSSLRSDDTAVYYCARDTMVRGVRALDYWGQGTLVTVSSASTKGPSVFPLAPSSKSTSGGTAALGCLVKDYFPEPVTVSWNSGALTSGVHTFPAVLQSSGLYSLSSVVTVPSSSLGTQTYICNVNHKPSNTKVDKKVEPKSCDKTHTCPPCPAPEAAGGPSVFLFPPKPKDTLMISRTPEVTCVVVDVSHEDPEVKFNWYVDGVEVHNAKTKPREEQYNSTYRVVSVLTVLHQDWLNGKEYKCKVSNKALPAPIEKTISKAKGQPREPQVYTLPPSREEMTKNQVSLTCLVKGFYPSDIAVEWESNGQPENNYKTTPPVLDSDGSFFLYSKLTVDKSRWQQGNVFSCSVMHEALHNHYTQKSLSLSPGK
light: B6 light
notes: Variant of PR003264; Human IgG1 with LALA mutation in Fc
B8: PR004260 (antibody, human IgG1, kappa, L234A L235A)
heavy: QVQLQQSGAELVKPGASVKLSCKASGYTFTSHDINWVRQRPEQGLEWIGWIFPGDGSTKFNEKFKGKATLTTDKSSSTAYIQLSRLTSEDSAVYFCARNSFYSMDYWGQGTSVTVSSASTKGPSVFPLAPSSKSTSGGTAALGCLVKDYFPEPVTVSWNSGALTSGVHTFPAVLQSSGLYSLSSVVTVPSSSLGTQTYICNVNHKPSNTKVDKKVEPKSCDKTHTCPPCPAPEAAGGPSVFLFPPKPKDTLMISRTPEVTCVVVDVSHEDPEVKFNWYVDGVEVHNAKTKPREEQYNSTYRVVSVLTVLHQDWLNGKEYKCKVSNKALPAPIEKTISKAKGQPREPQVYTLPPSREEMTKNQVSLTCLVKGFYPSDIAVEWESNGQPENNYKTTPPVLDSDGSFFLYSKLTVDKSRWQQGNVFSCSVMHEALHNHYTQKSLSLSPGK
light: DIVMSQSPSSLAVSAGEKVTMSCKSSQSLLNSRTRKNQLAWYQQKPGQSPKLLIYWASTRESGVPDRFTGSGSGTDFTLTISSVQAEDLAVYYCKQSYNLRTFGGGTKLEIKRTVAAPSVFIFPPSDEQLKSGTASVVCLLNNFYPREAKVQWKVDNALQSGNSQESVTEQDSKDSTYSLSSTLTLSKADYEKHKVYACEVTHQGLSSPVTKSFNRGEC
notes: Variant of PR003181; Human IgG1 with LALA mutation in Fc

Target: T1, biotinylated human B7-H7 protein (Acro …)
Experiment: BLI epitope competition on SA-captured biotinylated B7-H7; competitor (first antibody) PR003251
Experimental: Epitope competition experiments were performed on the anti-B7-H7 antibodies using the ForteBio Octet Red96e platform with the same experimental buffer as described above. […] After being equilibrated in a buffer for 120 s, the sensors were immersed in various antibodies diluted to 100 nM for 240 s, and the final signal of the antibody binding to B7-H7 was recorded as the 100% signal for that antibody. Second step, epitope competition experiment: B7-H7 was captured using SA sensors at a capture height of 0.25 nm. The sensors were immersed in a first antibody (concentration: 100 nM) for 240 s, then the SA sensors were immersed in a mixture of the first antibody and a second antibody (final concentration of both antibodies: 100 nM) for 240 s, and the difference in signals before and after immersing the sensors in the mixture of the two antibodies was recorded as the signal for that antibody as the second antibody. The inhibition rate was calculated by the following equation, […]

Binder	Competitive inhibition rate (%)
B1	97.9%
B2	99.1%
B3	96.4%
B4	100%
B5	96.9%

Target: T2, human B7-H7 on the cell surface
Experiment: flow cytometry, HCC827 cells
Experimental: (§1) This example was intended to study the in vitro activity of H2L2 monoclonal antibodies against human B7-H7 in binding to human/cynomolgus monkey B7-H7. Since homologous molecules of B7-H7 were not present in mice, the detection was not performed. […] The cells were adjusted to a cell density of 1×10⁶ cells/mL, respectively. The cells were seeded in a 96-well V-bottom plate (Corning, #3894) at 100 μL/well, and the antibody to be tested at 2× final concentration with 3-fold concentration gradient dilution was then added at 100 μL/well. The cells were incubated at 4° C. for 2 hours in the dark. After the incubation, the cells were rinsed twice by adding pre-chilled PBS containing 2% BSA at 100 μl/well, and centrifuged at 500 g at 4° C. for 5 minutes, and the supernatant was discarded. […] The cells were washed twice by adding pre-chilled PBS containing 2% BSA at 100 μL/well, and centrifuged at 500 g at 4° C. for 5 minutes, and the supernatant was discarded. Finally, the cells were resuspended in pre-chilled PBS containing 2% BSA at 200 μL/well, and the fluorescence signal values were read using an ACEA Novocyte3000 flow cytometer.

Binder	EC50	Maximum MFI
B6	618 pM	57000 MFI
B1	37.3 pM	53300 MFI
B2	192 pM	45900 MFI
B3	41 pM	54000 MFI
B4	43.9 pM	53300 MFI
B5	78.9 pM	53200 MFI

Target: T2, human B7-H7 on the cell surface
Experiment: flow cytometry, HEK-293/hu B7-H7 cells
Experimental: as §1

Binder	EC50	Maximum MFI
B6	1680 pM	756000 MFI
B1	1070 pM	813000 MFI
B2	1950 pM	762000 MFI
B3	1330 pM	822000 MFI
B4	1130 pM	807000 MFI
B5	1060 pM	763000 MFI

Target: T4, cynomolgus monkey B7-H7 on the cell surface (cynomolgus monkey)
T4 construct: whole, on cells; also called cyno B7-H7
Experiment: flow cytometry, HEK-293/cyno B7-H7 cells
Experimental: as §1

Binder	EC50	Maximum MFI
B6	829 pM	290000 MFI
B1	522 pM	430000 MFI
B2	1240 pM	389000 MFI
B3	590 pM	419000 MFI
B4	588 pM	447000 MFI
B5	556 pM	410000 MFI

Target: T3, CD275/ICOS ligand protein, human, …
Experiment: ELISA on coated B7 family protein
Experimental: B7 family proteins (see Table 7 for details) were respectively diluted to […] with PBS, added into a 96-well plate (Corning, #9018) at 100 μl/well, and incubated at 4° C. overnight. After the liquid was discarded, the plate was washed 3 times with a PBST buffer (pH 7.4, containing 0.05% tween-20), 250 μl of blocking solution containing 2% BSA was added, and the plate was incubated for 1 hour at 37° C. The blocking solution was discarded, the plate was washed 3 times with PBST buffer (pH 7.4, containing 0.05% Tween-20), the antigen-binding protein to be tested was diluted to 2 concentrations of 10 nM and 1 nM, 100 μl of the diluted antigen-binding protein was added to each well, and the plate was incubated for 1 hour at 37° C., with the isotype antibody as the control. After the plate was washed 3 times with PBST buffer (pH 7.4, containing 0.05% Tween-20), goat anti-human HRP secondary antibody (Invitrogen, #A18805) diluted 5000 times was added, and the plate was incubated at 37° C. for 1 hour in the dark. After the plate was washed 3 times with PBST buffer (pH 7.4, containing 0.05% tween-20), TMB (Biopanda, #TMB-S-003) was added at 100 μl/well, and the plate was placed at room temperature for about 30 minutes in the dark; and a stop solution (BBI life sciences, #E661006-0200) was added to each well at 50 μl/well to stop the reaction, and the absorbance at 450 nm (OD450) was determined in a microplate reader (PerkinElemer, #Enspire).

Binder	binding result
B7	no binding (tested: 10 nM)
B8	no binding (tested: 10 nM)
